Numbered stars: 1 amine (or outer) side, 2 acyl side, 3 side chain; on linkers, the order of the positions; unused ones are H or OH. Square brackets hold non-standard residues; d marks the D form. Side chains are listed from the residue outwards. Ends that are not written are not given here. * marks the point of attachment. γGlu = O=C(O)[C@H](CCC(=O)[*:2])N[*:1]; Palmitoyl = CCCCCCCCCCCCCCCC(=O)*; Aib = CC(C)(N)C(=O)O
T1: GIP receptor (UniProt P48546 22-466)
T1 sequence (looked up): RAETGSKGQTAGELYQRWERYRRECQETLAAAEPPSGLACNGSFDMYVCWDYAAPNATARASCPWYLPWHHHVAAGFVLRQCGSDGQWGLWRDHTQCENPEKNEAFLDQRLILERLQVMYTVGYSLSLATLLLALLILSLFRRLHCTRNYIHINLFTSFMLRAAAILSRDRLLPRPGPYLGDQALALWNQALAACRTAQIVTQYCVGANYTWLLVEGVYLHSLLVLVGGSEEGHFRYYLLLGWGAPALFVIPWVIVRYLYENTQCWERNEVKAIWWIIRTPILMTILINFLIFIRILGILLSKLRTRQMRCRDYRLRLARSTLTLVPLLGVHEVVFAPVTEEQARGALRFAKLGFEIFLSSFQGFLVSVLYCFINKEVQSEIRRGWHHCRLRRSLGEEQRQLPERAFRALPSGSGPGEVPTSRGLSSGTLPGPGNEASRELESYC

B1: peptide of SEQ ID NO: 30 (peptide)
peptide: H[Aib]QGTFTSDK([γGlu-Palmitoyl])SKYLD[Aib]RAAQDFVQWLLDGRG-NH2
modifications: N-terminus assumed
SMILES: CCCCCCCCCCCCCCCC(=O)N[C@@H](CCC(=O)NCCCC[C@H](NC(=O)[C@H](CC(=O)O)NC(=O)[C@H](CO)NC(=O)[C@@H](NC(=O)[C@H](Cc1ccccc1)NC(=O)[C@@H](NC(=O)CNC(=O)[C@H](CCC(N)=O)NC(=O)C(C)(C)NC(=O)[C@@H](N)Cc1c[nH]cn1)[C@@H](C)O)[C@@H](C)O)C(=O)N[C@@H](CO)C(=O)N[C@@H](CCCCN)C(=O)N[C@@H](Cc1ccc(O)cc1)C(=O)N[C@@H](CC(C)C)C(=O)N[C@@H](CC(=O)O)C(=O)NC(C)(C)C(=O)N[C@@H](CCCNC(=N)N)C(=O)N[C@@H](C)C(=O)N[C@@H](C)C(=O)N[C@@H](CCC(N)=O)C(=O)N[C@@H](CC(=O)O)C(=O)N[C@@H](Cc1ccccc1)C(=O)N[C@H](C(=O)N[C@@H](CCC(N)=O)C(=O)N[C@@H](Cc1c[nH]c2ccccc12)C(=O)N[C@@H](CC(C)C)C(=O)N[C@@H](CC(C)C)C(=O)N[C@@H](CC(=O)O)C(=O)NCC(=O)N[C@@H](CCCNC(=N)N)C(=O)NCC(N)=O)C(C)C)C(=O)O
B2: peptide of SEQ ID NO: 32 (peptide)
peptide: H[Aib]QGTFTSDK([γGlu-γGlu-Palmitoyl])SKYLD[Aib]RAAQDFVQWLMDTK[dA]-OH
modifications: N-terminus assumed
SMILES: CCCCCCCCCCCCCCCC(=O)N[C@@H](CCC(=O)N[C@@H](CCC(=O)NCCCC[C@H](NC(=O)[C@H](CC(=O)O)NC(=O)[C@H](CO)NC(=O)[C@@H](NC(=O)[C@H](Cc1ccccc1)NC(=O)[C@@H](NC(=O)CNC(=O)[C@H](CCC(N)=O)NC(=O)C(C)(C)NC(=O)[C@@H](N)Cc1c[nH]cn1)[C@@H](C)O)[C@@H](C)O)C(=O)N[C@@H](CO)C(=O)N[C@@H](CCCCN)C(=O)N[C@@H](Cc1ccc(O)cc1)C(=O)N[C@@H](CC(C)C)C(=O)N[C@@H](CC(=O)O)C(=O)NC(C)(C)C(=O)N[C@@H](CCCNC(=N)N)C(=O)N[C@@H](C)C(=O)N[C@@H](C)C(=O)N[C@@H](CCC(N)=O)C(=O)N[C@@H](CC(=O)O)C(=O)N[C@@H](Cc1ccccc1)C(=O)N[C@H](C(=O)N[C@@H](CCC(N)=O)C(=O)N[C@@H](Cc1c[nH]c2ccccc12)C(=O)N[C@@H](CC(C)C)C(=O)N[C@@H](CCSC)C(=O)N[C@@H](CC(=O)O)C(=O)N[C@H](C(=O)N[C@@H](CCCCN)C(=O)N[C@H](C)C(=O)O)[C@@H](C)O)C(C)C)C(=O)O)C(=O)O
B3: peptide of SEQ ID NO: 31 (peptide)
peptide: H[Aib]QGTFTSDK([γGlu-γGlu-Palmitoyl])SKYLD[Aib]RAAQDFVQWLMKGRG-OH
modifications: N-terminus assumed
SMILES: CCCCCCCCCCCCCCCC(=O)N[C@@H](CCC(=O)N[C@@H](CCC(=O)NCCCC[C@H](NC(=O)[C@H](CC(=O)O)NC(=O)[C@H](CO)NC(=O)[C@@H](NC(=O)[C@H](Cc1ccccc1)NC(=O)[C@@H](NC(=O)CNC(=O)[C@H](CCC(N)=O)NC(=O)C(C)(C)NC(=O)[C@@H](N)Cc1c[nH]cn1)[C@@H](C)O)[C@@H](C)O)C(=O)N[C@@H](CO)C(=O)N[C@@H](CCCCN)C(=O)N[C@@H](Cc1ccc(O)cc1)C(=O)N[C@@H](CC(C)C)C(=O)N[C@@H](CC(=O)O)C(=O)NC(C)(C)C(=O)N[C@@H](CCCNC(=N)N)C(=O)N[C@@H](C)C(=O)N[C@@H](C)C(=O)N[C@@H](CCC(N)=O)C(=O)N[C@@H](CC(=O)O)C(=O)N[C@@H](Cc1ccccc1)C(=O)N[C@H](C(=O)N[C@@H](CCC(N)=O)C(=O)N[C@@H](Cc1c[nH]c2ccccc12)C(=O)N[C@@H](CC(C)C)C(=O)N[C@@H](CCSC)C(=O)N[C@@H](CCCCN)C(=O)NCC(=O)N[C@@H](CCCNC(=N)N)C(=O)NCC(=O)O)C(C)C)C(=O)O)C(=O)O

Experiments:
Test in all cases: cell-based or functional assay
[1] = target: GLP-1 receptor (UniProt P43220 24-463, limits assumed)
[2] = target: glucagon receptor (UniProt P47871 26-477, limits assumed)
[3] = target: T1, GIP receptor

Chain of glucagon receptor (P47871 26-477 limits assumed): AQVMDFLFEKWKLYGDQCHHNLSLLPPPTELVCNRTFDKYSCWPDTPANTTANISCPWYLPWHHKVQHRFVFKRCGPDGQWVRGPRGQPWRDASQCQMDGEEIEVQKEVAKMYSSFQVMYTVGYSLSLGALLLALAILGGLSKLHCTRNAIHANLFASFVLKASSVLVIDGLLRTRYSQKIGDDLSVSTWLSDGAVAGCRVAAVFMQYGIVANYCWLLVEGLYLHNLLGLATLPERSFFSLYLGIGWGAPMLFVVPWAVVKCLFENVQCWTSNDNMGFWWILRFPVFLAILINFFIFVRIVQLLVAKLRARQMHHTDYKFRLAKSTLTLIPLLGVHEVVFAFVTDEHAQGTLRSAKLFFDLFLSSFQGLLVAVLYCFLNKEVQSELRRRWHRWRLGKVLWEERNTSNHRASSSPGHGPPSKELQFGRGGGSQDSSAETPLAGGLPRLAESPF

Binder	EC50 (nM) at GLP-1 receptor [1] [nM]	EC50 (nM) at glucagon receptor [2] [nM]	EC50 (nM) at GIP receptor [3] [nM]
B1	0.0082	0.933	9.06
B2	0.008	0.007	2.08
B3	0.007	0.016	2.34
